Measurements as given in patent US20060160076A1.

Target: CX3CR1 (endogenous, on 3T3-L1 adipocytes) (mouse) (UniProt Q9Z0D9)
Assay: cell-based or functional assay

UniProt Q9Z0D9, sequence (Q9Z0D9 whole entry): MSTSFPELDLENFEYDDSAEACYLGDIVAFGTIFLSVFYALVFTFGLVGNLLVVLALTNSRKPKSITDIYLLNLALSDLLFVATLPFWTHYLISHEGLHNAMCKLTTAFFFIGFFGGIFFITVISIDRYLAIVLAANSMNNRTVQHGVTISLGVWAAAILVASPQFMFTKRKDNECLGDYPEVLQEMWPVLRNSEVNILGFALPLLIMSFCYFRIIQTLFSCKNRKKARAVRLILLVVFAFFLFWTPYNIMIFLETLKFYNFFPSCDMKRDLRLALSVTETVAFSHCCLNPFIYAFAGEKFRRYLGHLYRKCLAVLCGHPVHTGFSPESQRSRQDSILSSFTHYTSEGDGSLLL

“recombinant soluble fractalkine (ligand)” showed a fold change in glucose uptake over vehicle pretreatment alone; +1 nM FRA, +0.1 nM INS of 1.6 fold, a fold change in glucose uptake over vehicle pretreatment alone; +1 nM FRA, +1 nM INS of 1.6 fold and a fold change in glucose uptake over vehicle pretreatment alone; +1 nM FRA, +10 nM INS of 0.9 fold. The fold change in glucose uptake over vehicle pretreatment alone; +1 nM FRA, basal was 1.4 fold, the fold change in glucose uptake over vehicle pretreatment alone; +10 nM FRA, +0.1 nM INS was 1.9 fold and the fold change in glucose uptake over vehicle pretreatment alone; +10 nM FRA, +1 nM INS was 1.8 fold. The fold change in glucose uptake over vehicle pretreatment alone; +10 nM FRA, +10 nM INS was 0.9 fold, the fold change in glucose uptake over vehicle pretreatment alone; +10 nM FRA, basal was 1.3 fold and the fold change in glucose uptake over vehicle pretreatment alone; +100 nM FRA, +0.1 nM INS was 2 fold. For the same substance, the fold change in glucose uptake over vehicle pretreatment alone; +100 nM FRA, +1 nM INS was 1.3 fold, the fold change in glucose uptake over vehicle pretreatment alone; +100 nM FRA, +10 nM INS was 1.1 fold and the fold change in glucose uptake over vehicle pretreatment alone; +100 nM FRA, basal was 1.3 fold. The mean 2-DOG uptake value; 1 nM FRA+0.1 nM INS was 1090, the mean 2-DOG uptake value; 1 nM FRA+10 nM INS was 3660 and the mean 2-DOG uptake value; 1 nM FRA+Basal was 544. It also gave a mean 2-DOG uptake value; 1 nM FRA+nM INS (so in the source) of 3160, a mean 2-DOG uptake value; 10 nM FRA+0.1 nM INS of 1280 and a mean 2-DOG uptake value; 10 nM FRA+1 nM INS of 3540. The mean 2-DOG uptake value; 10 nM FRA+10 nM INS was 3750, the mean 2-DOG uptake value; 10 nM FRA+Basal was 521 and the mean 2-DOG uptake value; 100 nM FRA+0.1 nM INS was 1350. The mean 2-DOG uptake value; 100 nM FRA+1 nM INS was 2730, the mean 2-DOG uptake value; 100 nM FRA+10 nM INS was 4350 and the mean 2-DOG uptake value; 100 nM FRA+Basal was 515.
